Assay results from publication PMC12388516.

Target: bovine thrombin (thrombin reagent) (bovine)

Substance	thrombin time (TT) clotting time of human plasma with bovine thrombin; HLF1V at 0.32 and 3.2 µmol/L; expressed at 30 °C; cut-off 300 s	thrombin time (TT) clotting time of human plasma with bovine thrombin; hirudin HV1 at 0.32 and 3.2 µmol/L; expressed at 30 °C; cut-off 300 s
recombinant hirudin-like factor HLF1V expressed in E. coli strain SHuffle T7 (natural protein)	> 300 s	–
recombinant hirudin HV1 expressed in E. coli strain SHuffle T7 (natural protein)	–	> 300 s
